Measured values taken from the DeepSol protein solubility set.

Test: soluble on expression in E. coli; label from the status in PepcDB or PDB records

Question: For “MSLDKPRLQFSIREQVQQLLGGLAGLKNYQVPSKETIADNAYLKQMGVALDVLTKEVEKLKSDDGVSAEAMGDYLYRQVQWVNNIVPTQMDLNRLFATMNTAGIQLEQADILKAKLFKHIHTDKAQYDAMWVACEHLENYFERNVRKVFPNADWYHIEPEHLASFDAERFAAKDETSEALSGLSIAELASQVKASSIPDNTEQEKFETYDLDVETVYCRPIIKFPLLLIHAYRVYLALNDHNDIEPRLHSDRLLEIFDPLINGDEQSVKLFIETLWQVRYQFDRWVVKWVERDDATDAQLGLTYQSRSKSNDTYYINRTQKELTDIVLLQSVRNFTGERSAQYWLTPFLSGLIRSSIKQDSVALELLENIDNKMSLSVDTQKEASFALAEGIEPNCQSWQSQSTYFAKSLGTSFEHYWFQKLEYLIWKKMKASESSLPSEELNKFKKYRITSKNSVEHVHPQNDEYNSRLDCETLNSFGNLVLLSPGENSSYSNQDVDKKRIDFERKSHFDALKLREIFGVKGQGLWGKQQIDNHLEDMMAVFAQHYKEGHHHHHH”, which “soluble on expression in E. coli” value is on record?
Answer: The value was “soluble”.

Question: For “MSLDKPVIQIHTDNSSLIFRVADNGRLYQSYLGKKLNHEADISHLPQGTEAYITHGMEDYFEPAIHILHNDGNPSLLLKYVSHETKAVSQGVNETIITLGDDKYPVTVKLHYVTYPAEDIIKTYTEISHKEKKPVVLHQYASSMLHLNRAKYYLTEFSGDWAHEANISDQPLEFGKKVLDTKLGARANMFTPPFFQLSLDQLATENCGEVLVGTLGWTGNFRFTFEVDNKNELRIISGINPYASEYYLPAGVVFRTPDFYFTYSANGKGKASRNFHDWARRYQLKDGDETRMTLLNNWEATYFDFNEEKLIGLIGDAAGLGVDMFLLDDGWFANKYPRSSDHQGLGDWDETADKLPNGIGRLVEEATKKGIKFGLWIEPEMVNPKSELYEKHKDWVIHLPNRDEYYFRNQLVLDLSNPKVQDFVFGVVDDLMTKYPGIAFFKWDCNSPITNIYSSYLKEKQSHLYIDYVRGLYNVLERIKTKYPDLPMMLCSGGSGRIDYETLRYFTEFWPSDNTDPIERLFIQWGYSQLFPAKTLCAHVTTWNHDASIKFRTDVAMMGKLGFDIKLSDLNDNEKKFCRDAVTNYNHLKPVVLEGDMYRLVSPYSGNHTSTQYVGKDKKGAVVFAFDIYSRYGEKLLPVRLQGLDAGRQYRVKEINLMPGTNSEGHHHHHH”, which “soluble on expression in E. coli” value is on record?
Answer: The value was “not soluble”.

Question: With “MSLDNKRRFALVGTGNRGTTMWGRDLLAGWRGLVDLVAIADTNALRAERARTMIATNAPVYGNVDAMLAETRPDLVIVCTPDDTHDDIVVRALESGADVITEKPMSTTVEKIRRILDAEKRTGRRVDVSFNYRFAPTAARIKELLNAGEIGRVTSVDFHWYLDTRHGADYFRRWHAYAEHSGSLFVHKATHHFDLLNWYLDSDPEAVSAFADLQMYGRRGPFRGPRCKLCPHKSECDFYLDLEADPFLDSLYEEPSEIDSYFRDGCVFREDIDIPDTMVANIRYRNDVHVSYSLNTFQPIEGHHIAFNGTKGRIELRQYEDQPWETPPEDEILLVRNFPKGKPAMERITVPHFPGGHYGGDDRLRNTLFEPDAKDPLGQRAGARAGAMSVLCGIAALQSSRTGKIVRLADLMPELFTDGAQPMRERLKETCSREGHHHHHH” as the sequence, how does the “soluble on expression in E. coli” value read?
Answer: The value was “soluble”.

Question: Which “soluble on expression in E. coli” value does the source give for “MSLDNLNLIVSLKDGGLLHFKRDEELGEINVFNFQEQGTLIPFLGFFGSGKQKDVVLDGVSSNSIVDALQIGGSGVVITLSVNKVLKLWNLDGHQNLSSLTIASDDNTWLPTIPSKYLKSYDQEDGKTIITLFINTKSGDSSKSMFVFKSFELESSNLHDLSDLSFQPELPNSLLFSSDVFYHESNFQNTIWFIQDYEVVGFGTSQLKYYILWKSNTSSILVEYTINPVNGAILSEGHHHHHH” here?
Answer: The value was “not soluble”.

Question: With “MSLDPVGPISDEETSYYVRLQYNGEILPLFTKIEGIEYKKATDIHNPLKASFIAGGGAFGYKMDDIRVDVEGLYSQLNKNDVTGAAFNPDTVADSLTAISGLVNVYYDIAIEDMPITPYVGVGVGAAYISTPLKDAVNDQKSKFGFAGQVKAGVSYDVTPEVKLYAGARYFGSFGAHFDKDTAAASKDKGELKVLYSTVGAEAGVAFNFEGHHHHHH” as the sequence, how does the “soluble on expression in E. coli” value read?
Answer: The value was “not soluble”.

Question: Which “soluble on expression in E. coli” value does the source give for “MSLDQQSKEQLNIREMTKEDVPQVFDLERRSFNDSSWTIDAFYHEIEQNNFAKYFVLEFEQQIIGYLGLWIVIDQAQITTVAIDDNYRGYGLGQMLLKYGINYASHTCDVMSLEVRVNNKVAQHVYENLGFQYGGKRKNYYGEGEDAMVMWVNLNDEGHHHHHH” here?
Answer: The value was “soluble”.

Question: With “MSLDRQLWRQFPQVEPQLTALQDYLLRTVQLDNQPIHHKILALLKSGGKLLRPGYFYLFSTFGNAATPAQLQAGAAAIEILHVGTLIHDDVIDDSPTRRGVRTIQMTYGQRNAIYAGDFMFTVYFDQVLKSTTDRSLIQNHIDAMHRILQGELHQMDLNYREDITLDAYLNEIAGKTAELFALSCYQGAQLAGAPQSVIDRTRDIGIAIGCAYQMLDDILDYAGDPKRTQKPVLEDLRSGVYSLPLLLSLSHAPRDFHKLLKKKQAMTLEDIKHVQALVAQYDGVGAAKQLAQDYTDRALTLIQQLPVGSAQQSLEQLTRLLLRRDHEGHHHHHH” as the sequence, how does the “soluble on expression in E. coli” value read?
Answer: Its value is “soluble”.

Question: For “MSLDSACEGRFVNPITDICWSCIFPLSLGSIKVSQGKVPDTANPSMPIQICPAPAPLFRRIGLAIGYWEPMALTDVTRSPGCMVNLGFSLPAFGKTAQGTAKKDEKQVNGAFYHVHWYKYPLTYWLNIITSLGCLEGGDMDIAYLSEIDPTWTDSSLTTILNPEAVIFANPIAQGACAADAIASAFNMPLDVLFWCAGSQGSMYPFNGWVSNESSPLQSSLLVSERMAFKLHRQGMIMETIGKNNAVCNEYPSPILPKERWRYQMVNMYPDSGQCHPFGRSVMPWETGKNPPNTKKNFGYLMWRKRNCVFLEGHHHHHH”, which “soluble on expression in E. coli” value is on record?
Answer: Its value is “soluble”.

Question: Which “soluble on expression in E. coli” value does the source give for “MSLDSKIDILIVVNMFLTGFDSKVLNTLYVDKNLMYHDLIQAYSRTNRVEKESKPFGKIVNYRDLKKETDDALRVFSQTNDTDTILMRSYEEYKKEFMDAYRELKMIVPTPHMVDDIQDEGHHHHHH” here?
Answer: The value was “not soluble”.

Question: Which “soluble on expression in E. coli” value does the source give for “MSLDSSISDEDTVTVRTAKQVALVVEGQIQNVTTTAVSVEDLLQEVGGITGADAVDADLSETIPESGLEHHHHHH” here?
Answer: The value was “not soluble”.

Question: With “MSLDSSKRQFLQQLGVLTAGASLVPLAEAKFPFSPERHEGSPRHRYAMLIDLRRCIGCQSCTVSCTIENQTPQGAFRTTVNQYQVQREGSQEVTNVLLPRLCNHCDNPPCVPVCPVQATFQREDGIVVVDNKRCVGCAYCVQACPYDARFINHETQTADKCTFCVHRLEAGLLPACVESCVGGARIIGDIKDPHSRIATMLHQHRDAIKVLKPENGTSPHVFYLGLDDAFVTPLMGRAQPALWQEGHHHHHH” as the sequence, how does the “soluble on expression in E. coli” value read?
Answer: The value was “not soluble”.

Question: Which “soluble on expression in E. coli” value does the source give for “MSLDSSRIKVVFWHEMKGPGQQAIDAYVKAFNHQQSKYEVVAEFEGGYNGVIQKILNTHGTAASPALFQSMDISTSQMYHSGFTTPMQKFIDRDHYDADQIIPGAKAIVMRDNQLLAMPFNASQTALYYNKRVLRQYGITPPPVDPTYDDITRVAKAIHDKSHGKVKGMTMEAYSWLFEQLVANAGVPVANHDNGHTGNATKVDFTSPAAINAMKWVKENIDYGDFMNFGSGGNAAANEAASFLAGHLGIFMQSSANTGQLYQVLKNDLGVTYFPRPNGQRANGIAVGGAALWIANDKPSAVQDGAWEFTKFLASAQTQADWQAKTGYLAVNKGAKDEPTLKKLFKKSPVLEVSGNQMLRTKPNNTNSGVFVDGWVPARTAIQTAMQQIFAGQDIRQSLQTAENTYNKVLESNNRANGREGHHHHHH” here?
Answer: Its value is “soluble”.

Question: For “MSLDVDLAPPGPLAAGGLRVTALGGISEIGRNMTVFEHLGRLLIIDCGVMFPTHDEPGVDLILPDLRHIEDRLDDIEALVLTHAHEDHIGGIPYLLKLRPDIPVVGSKFTLALVAAKCREHRLKPVFVEVSEGHKSTHGVFECEYFAVNHSIPDALAIAVHTGAGTVLHTGDIKLDQLPLDGRPTDLPGMSRLGDAGVDLFLCDSTNAELPGVGPSESEVGPTLHRLIRGAEGRVIVACFASNVDRVQQIIDAAVALGRRVSFVGRSMVRNMGIARELGFLRVADADVIDIGAAELMPPERVVLITTGTQGEPMSALSRMSRGEHRSITLTAGDLVVLASSLIPGNEEAVYGVIDELAKIGARVVTNAQARVHVSGHAYAGELLFLYNGVRPRHVMPVHGTWRMLRANSKLAARTGVPEESILLAENGVSVDLVAGRASISGAVPVGKMFVDGLVDGDVGDITLGERLILSSGFVAVTVVVQRGTGRPVAPPHLHSRGFSEDPKALEPAVRRVEEELEALVAENITDPSRIAQGVRRTVGKWVGETYRRQPMIVPTVIEVEGHHHHHH”, which “soluble on expression in E. coli” value is on record?
Answer: Its value is “soluble”.

Question: Which “soluble on expression in E. coli” value does the source give for “MSLDVLGHVFEYFLGEFALAEGKQGGQFYTPKCVVELLVTMLEPYKGRVFDPCCGSGGMFVQSEEFVKSHQGRLDDISIYGQESNQTTYKLAKMNLAIRKIESSQVIWNNEGSFLNDAHKDLKADFIIANPPFNDSDWSGELLENDGRWKYGVPPASNANYAWIQHFLYHLSPNGGVAGFVLAKGALTSNTTNEAAIRKALIEDDLIDCIVNLPAKLFLNTGIPASLWFIRRQKLPKTVKKTLFIDARDLGTRINRRNKTLNKDDINQIANIYKAWKNGTDYEDIKGFCKSVSIDEIRELSYVLTPGRYVGLADSDDEFDFDTRFNELLAKLKSQIKTEQELSEIILKNLEKIKEGHHHHHH” here?
Answer: Its value is “not soluble”.

Question: With “MSLEAIVFDRSEPENVSVKVLDQLLLPYTTKYVPIHTIDDGYSVIKSMQVRGAPAIAIVGSLSVLTEVQLIKHNPTSDVATLYSLVNWESTKTVLNKRLDFLLSSRPTAVNLSNSLVEIKNILKSSSDLKAFDGSLYNYVCELIDEDLANNMKMGDNGAKYLIDVLQKDGFKDEFAVLTICNTGSLATSGYGTALGVIRSLWKDSLAKTDK” as the sequence, how does the “soluble on expression in E. coli” value read?
Answer: The value was “soluble”.

Question: Which “soluble on expression in E. coli” value does the source give for “MSLEALLSEDVKIIASALKAAIDKDRKSTSKREAETGIRYYNHENDIMNNRIFYVDDEGVLREDKYASNVRIPHGFFPEIVDQKTQYLLSNPVEYETENEELKEYLAEYYNSEFQVVLQELVEGSSQKGFEYVYARTNAEDRLCFQVADSLNVFGVYNEYNELQRICRHYITEIEKDGETVDIHHAEVWTDQNVYFFVAEDNKDYELDEAEPINPRPHVLAVDSDNESLLQRSYGQIPFYRLSNNKQETTDLKSIKALIDDYDLMNCFLSNNLQDFAEAIYVVSGFQGDDLSKLRQNVKSKKVVGTGSDGGLDVKTVTIPTEGRKTKMEIDKENIYKFGMAFDSTQVGDGNITNIVIKARYTLLNMKANKTEARLRALLEWMNKLVIDDINRRYTKAFDPTEVSFTFTREVMVNETDIVNNEKTEAETRKIILESILQVAPRLDDDNVLRLICEQFDLDWEDVKEALEEAEYTQGLTDNTDEEETAEGHHHHHH” here?
Answer: The value was “soluble”.

Question: With “MSLEDCRISRVELYALADENAPPIPWADNQEPLLYTNNIVRLFTEDGTEGLGATMSYTENFFDRCIIESLRTIVPGLIGKNPLMTQELNNWLGARCTWGGLPAKSPIDIAAWDIKGKKAGMPLYMLLGGARTKIKSYASTPMFDTVEEYFPYIDDCIEHGFTAIKLHCYCVYDKDVALVEAVEAKYGTSGIRFMLDTAGFYTPEQAMKMAKWMERHNWEWLEAPVSDYDFKTYQRLVANTDLEISSHGNCLLTLQEVTHALSTGMWSDVRQDATVCGGITQLNKCFAIAAGHSKNLEIQSMGYTLTQAANLHVALAHDNCNFFEQFYPYEAFELASKTQIRTDKEGYVHAPAGNGLGVEMDWDAVKEASFASYVFEEGHHHHHH” as the sequence, how does the “soluble on expression in E. coli” value read?
Answer: Its value is “soluble”.

Question: With “MSLEDSKASLETRNFYMNRDFRDGPGQSKREEWAQGFILNLQSGYTQGTVGFGLDAMGMLGVKLDSGRGRSGTGLLPKDSDGRAPDTYSKLGLTAKVKVSQSELKVGTLIPKLPSVQPNNGRIFPQIFEGALLTSKEIKDLGFTAGRLEKTKIRDSSDSEDLALNDKNGRFAGVSADHFDLGGLDYKLTDQLTASYHYSNLQDVYRQHFVGLLHSWPIGPGELTSDLRFARSTDSGSAKAGGIDNKSLNGMFTYSLGNHAFGAAWQRMNGDDAFPYLEGSNPYLVNFVQVNDFAGPKERSWQLRYDYDFVGLGIPGLTFMTRYVKGDNVELAGQSGEGREWERNTELQYVFQSGALKNLGIRWRNATFRSNFTRDIDENRLIVSYTLPIWEGHHHHHH” as the sequence, how does the “soluble on expression in E. coli” value read?
Answer: The value was “soluble”.
